The target of experiment [1] is CD137 and PD1 individually fused to subunits of NanoLuc luciferase, on the same cell (NanoBiT assay cells). The experiment in a line: NanoBiT cell based protein interaction assay, luminescence on bridging of CD137 and PD1 on one cell.
The target of experiment [2] is human CD137 and human PD-1 on stimulated primary human T cells (human). As to the kind of experiment: flow cytometry, labelled VH on activated CD137+ human T cells (human control), n = 1. A general note: A flow cytometer gives signals particle by particle.
For experiment [3] the target is unchanged. As to the kind of experiment: flow cytometry, AF488-labelled VH on pre-stimulated human CD8+ cells, average of 2 donors.
For experiment [4], the target named is cynomolgus CD137 and cynomolgus PD-1 on activated CD137+ cynomolgus T cells (cynomolgus) (UniProt A9YYE7). The experiment in a line: flow cytometry, labelled VH on activated CD137+ cynomolgus T cells, n = 3.

B1: TPP-1409 CD137A-1GS-HSA2-1GS-PD138G7(G109D) (bispecific antibody)
chain: EVQLVESGGGLVQPGGSLRLSCAASGFTLSNYWMNWVRQAPGKGLEWVANINQDGSERYYVDSVKGRFTISRDNAKNSLYLQMNSLRAEDTAVYYCARGGEGYGVDHYGLDVSGQGTTVTVSSGGGGSEVQLVESGGGLVKPGGSLRLSCAASGFTFSNYNMNWVRQAPGKGLEWVSSISSAGTHIYYADSVKGRFTISRDNAKNSLYLQMNSLRAEDTAVYYCARDPHSTGWYKDFDYWGQGTLVTVSSGGGGSEVQLVESGGGVVRPGGSLRLSCAASGFTFDDYAMSWVRQAPGKGLEWVSGITWNGGSTGYADSVKDRFTISRDNAKNSLYLQMNSLRAEDTALYYCVRDKYSYAWSYDDFDIWGQGTMVTVSS
For orientation: EC50 means the concentration needed to bring the measured effect to its halfway point. A lower EC50 goes with an effect from little substance. Take B1: in experiment [1], the EC50 stood at 0.0259 nM.

B2: TPP-1290 PD138G7(G109D)-6GS-CD137A-6GS-HSA2 (bispecific antibody)
chain: EVQLVESGGGVVRPGGSLRLSCAASGFTFDDYAMSWVRQAPGKGLEWVSGITWNGGSTGYADSVKDRFTISRDNAKNSLYLQMNSLRAEDTALYYCVRDKYSYAWSYDDFDIWGQGTMVTVSSGGGGSGGGGSGGGGSGGGGSGGGGSGGGGSEVQLVESGGGLVQPGGSLRLSCAASGFTLSNYWMNWVRQAPGKGLEWVANINQDGSERYYVDSVKGRFTISRDNAKNSLYLQMNSLRAEDTAVYYCARGGEGYGVDHYGLDVSGQGTTVTVSSGGGGSGGGGSGGGGSGGGGSGGGGSGGGGSEVQLVESGGGLVKPGGSLRLSCAASGFTFSNYNMNWVRQAPGKGLEWVSSISSAGTHIYYADSVKGRFTISRDNAKNSLYLQMNSLRAEDTAVYYCARDPHSTGWYKDFDYWGQGTLVTVSS
Consider B2, for which the EC50 turned out to be 6.87 nM in experiment [2], 0.0515 nM in experiment [1], 1.49 nM in experiment [3] and 7.17 nM in experiment [4].

B3: TPP-1410 PD138G7(G109D)-1GS-CD137A-6GS-HSA2 (bispecific antibody)
chain: EVQLVESGGGVVRPGGSLRLSCAASGFTFDDYAMSWVRQAPGKGLEWVSGITWNGGSTGYADSVKDRFTISRDNAKNSLYLQMNSLRAEDTALYYCVRDKYSYAWSYDDFDIWGQGTMVTVSSGGGGSEVQLVESGGGLVQPGGSLRLSCAASGFTLSNYWMNWVRQAPGKGLEWVANINQDGSERYYVDSVKGRFTISRDNAKNSLYLQMNSLRAEDTAVYYCARGGEGYGVDHYGLDVSGQGTTVTVSSGGGGSGGGGSGGGGSGGGGSGGGGSGGGGSEVQLVESGGGLVKPGGSLRLSCAASGFTFSNYNMNWVRQAPGKGLEWVSSISSAGTHIYYADSVKGRFTISRDNAKNSLYLQMNSLRAEDTAVYYCARDPHSTGWYKDFDYWGQGTLVTVSS
In experiment [1], B3 came in with an EC50 of 0.0532 nM.

B4: TPP-1438 CD137A-6GS-HSA2-6GS-PD138G7(G109D)-6GS-PD138G7(G109D) (bispecific antibody)
chain: EVQLVESGGGLVQPGGSLRLSCAASGFTLSNYWMNWVRQAPGKGLEWVANINQDGSERYYVDSVKGRFTISRDNAKNSLYLQMNSLRAEDTAVYYCARGGEGYGVDHYGLDVSGQGTTVTVSSGGGGSGGGGSGGGGSGGGGSGGGGSGGGGSEVQLVESGGGLVKPGGSLRLSCAASGFTFSNYNMNWVRQAPGKGLEWVSSISSAGTHIYYADSVKGRFTISRDNAKNSLYLQMNSLRAEDTAVYYCARDPHSTGWYKDFDYWGQGTLVTVSSGGGGSGGGGSGGGGSGGGGSGGGGSGGGGSEVQLVESGGGVVRPGGSLRLSCAASGFTFDDYAMSWVRQAPGKGLEWVSGITWNGGSTGYADSVKDRFTISRDNAKNSLYLQMNSLRAEDTALYYCVRDKYSYAWSYDDFDIWGQGTMVTVSSGGGGSGGGGSGGGGSGGGGSGGGGSGGGGSEVQLVESGGGVVRPGGSLRLSCAASGFTFDDYAMSWVRQAPGKGLEWVSGITWNGGSTGYADSVKDRFTISRDNAKNSLYLQMNSLRAEDTALYYCVRDKYSYAWSYDDFDIWGQGTMVTVSS
In experiment [1], B4 yielded an EC50 of 0.105 nM.

B5: TPP-1439 PD138G7(G109D)-6GS-PD138G7(G109D)-6GS-CD137A-7-6GS-HSA2 (bispecific antibody)
chain: EVQLVESGGGVVRPGGSLRLSCAASGFTFDDYAMSWVRQAPGKGLEWVSGITWNGGSTGYADSVKDRFTISRDNAKNSLYLQMNSLRAEDTALYYCVRDKYSYAWSYDDFDIWGQGTMVTVSSGGGGSGGGGSGGGGSGGGGSGGGGSGGGGSEVQLVESGGGVVRPGGSLRLSCAASGFTFDDYAMSWVRQAPGKGLEWVSGITWNGGSTGYADSVKDRFTISRDNAKNSLYLQMNSLRAEDTALYYCVRDKYSYAWSYDDFDIWGQGTMVTVSSGGGGSGGGGSGGGGSGGGGSGGGGSGGGGSEVQLVESGGGLVQPGGSLRLSCAASGFTLSNYWMNWVRQAPGKGLEWVANINQDGSERYYVDSVKGRFTISRDNAKNSLYLQMNSLRAEDTAVYYCARGGEGYGVDHYGLDVSGQGTTVTVSSGGGGSGGGGSGGGGSGGGGSGGGGSGGGGSEVQLVESGGGLVKPGGSLRLSCAASGFTFSNYNMNWVRQAPGKGLEWVSSISSAGTHIYYADSVKGRFTISRDNAKNSLYLQMNSLRAEDTAVYYCARDPHSTGWYKDFDYWGQGTLVTVSS
Take B5: in experiment [1], the EC50 came out at 0.148 nM.

B6: TPP-1246 CD137A-6GS-HSA2-6GS-PD138G7(G109D) (bispecific antibody)
chain: EVQLVESGGGLVQPGGSLRLSCAASGFTLSNYWMNWVRQAPGKGLEWVANINQDGSERYYVDSVKGRFTISRDNAKNSLYLQMNSLRAEDTAVYYCARGGEGYGVDHYGLDVSGQGTTVTVSSGGGGSGGGGSGGGGSGGGGSGGGGSGGGGSEVQLVESGGGLVKPGGSLRLSCAASGFTFSNYNMNWVRQAPGKGLEWVSSISSAGTHIYYADSVKGRFTISRDNAKNSLYLQMNSLRAEDTAVYYCARDPHSTGWYKDFDYWGQGTLVTVSSGGGGSGGGGSGGGGSGGGGSGGGGSGGGGSEVQLVESGGGVVRPGGSLRLSCAASGFTFDDYAMSWVRQAPGKGLEWVSGITWNGGSTGYADSVKDRFTISRDNAKNSLYLQMNSLRAEDTALYYCVRDKYSYAWSYDDFDIWGQGTMVTVSS
On to B6, for which the EC50 in experiment [2] was 3.75 nM; in experiment [1] it was 0.0251 nM; in experiment [3] it was 2.22 nM; in experiment [4], 3.63 nM.
